# Reference: paper PMC4372590, “Autonomously Folding Protein Fragments Reveal Differences in the Energy Landscapes of Homologous RNases H” (PLoS ONE, 2015)
# T1: T. thermophilus RNase H I_(core) fragment (T. thermophilus)
# T1 chain: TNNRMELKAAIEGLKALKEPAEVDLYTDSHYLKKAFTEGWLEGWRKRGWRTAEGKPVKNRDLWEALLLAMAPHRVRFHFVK
# Target: T1, T. thermophilus RNase H I_(core) …
# Test: AUC; equilibrium analytical ultracentrifugation (Beckman XL-I); 25, 50 and 100 uM samples; 24,500, 30,000 and 37,000 rpm; absorbance at 250 nm; global fit to a monomer-dimer equilibrium (dimer to monomers); room temperature, 20 mM sodium acetate pH 5.5, 50 mM potassium chloride
# Conditions: both partners purified
binder,measurement,value
"T. thermophilus RNase H I_(core) fragment (domain or fragment, Printed limits 43-122 use E. coli alignment numbering. The offset is +4 at the N-terminal end (R4=R8, W22=W26, D66=D70) and +5 after the one-residue insertion near 80, so 122=K127. The paper says …) TNNRMELKAAIEGLKALKEPAEVDLYTDSHYLKKAFTEGWLEGWRKRGWRTAEGKPVKNRDLWEALLLAMAPHRVRFHFVK",Kd,~150 µM
same,stoichiometry N,2
